According to patent US20140107039:

Chain of H3.3K27M peptide (18-37) (chain, as listed by the source): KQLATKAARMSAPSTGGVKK

Polycomb Repressive Complex 2 (PRC2), purified through FLAG-tagged human EED from HeLa or HEK293T nuclear extract
Apparent Vmax of PRC2 methyltransferase reaction at varying mononucleosome concentrations (H3.3K27M peptide (18-37)): showed a reduction in the apparent Vmax by addition of the K27M peptide | Apparent Vmax of PRC2 methyltransferase reaction at varying mononucleosome concentrations (H3K27ac peptide (18-37)): PRC2 reactions that contained H3K27ac peptide of identical peptide concentrations did not decrease the apparent Vmax of the reaction
